Test results taken from patent US6350609B1, “Electrospraying for mass fabrication of chips and libraries” (New York University, priority 1997, dated 2002).
Several values for one entry are separate records, joined by “and”; a condition that tells them apart may be missing. Equal entries are not always repeated.

B1: AP: Alkaline phosphatase (AP) from bovine intestinal mucosa, Sigma (protein, UniProt P19111 20-506, looked up)
Intestinal-type alkaline …: LVPVEEEDPAFWNRQAAQALDVAKKLQPIQTAAKNVILFLGDGMGVPTVTATRILKGQMNGKLGPETPLAMDQFPYVALSKTYNVDRQVPDSAGTATAYLCGVKGNYRTIGVSAAARYNQCKTTRGNEVTSVMNRAKKAGKSVGVVTTTRVQHASPAGAYAHTVNRNWYSDADLPADAQMNGCQDIAAQLVNNMDIDVILGGGRKYMFPVGTPDPEYPDDASVNGVRKRKQNLVQAWQAKHQGAQYVWNRTALLQAADDSSVTHLMGLFEPADMKYNVQQDHTKDPTLQEMTEVALRVVSRNPRGFYLFVEGGRIDHGHHDDKAYMALTEAGMFDNAIAKANELTSELDTLILVTADHSHVFSFGGYTLRGTSIFGLAPSKALDSKSYTSILYGNGPGYALGGGSRPDVNDSTSEDPSYQQQAAVPQASETHGGEDVAVFARGPQAHLVHGVEEETFVAHIMAFAGCVEPYTDCNLPAPTTATSIPD

What was measured:
Cytochrome C (equine) = Cytochrome C (equine) (Equus caballus, UniProt P00004); test: Mechano-chemical effect of a specific ligand on cross-linked protein film (isometric tension); format: biochemical; conditions: electrospray deposited, reduction with dithionite
Sequence of Cytochrome C (equine) (P00004 whole entry): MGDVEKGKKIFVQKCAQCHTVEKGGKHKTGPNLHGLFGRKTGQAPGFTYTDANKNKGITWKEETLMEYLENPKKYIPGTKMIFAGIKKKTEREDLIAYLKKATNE

[1] = Engström, 1961; cited from earlier work
Bovine intestinal AP = Bovine intestinal AP (Bos taurus, UniProt P19111); conditions: McComb et al., 1979; cited from earlier work
alkaline phosphatase = molecular target: T1, alkaline phosphatase (Bos taurus, UniProt P19111); test: Enzyme activity of electrospray-deposited alkaline phosphatase on nitrocellulose filter (BCIP/NBT substrate); format: biochemical; conditions: deposited through polypropylene mask onto wetted nitrocellulose filter; BCIP/NBT staining
T1 construct: purchased Sigma Chemical Company, St. Louis, Mo
From the text: The electrospray conditions used in this example were similar to those used in Example 1.
Likewise, the membrane filters on which alkaline phosphatase was deposited was soaked in a standard alkaline phosphatase substrate (5-bromo-4-chloro-3-indolyl phosphate/nitro blue tetrazolium substrate system kit, Sigma, St. Louis, Mo.), resulting in the formation of an insoluble blue colored product of the alkaline phosphatase reaction, and the pattern was visualized as shown in FIG. 12B.

[2] = molecular target: T2, Alkaline phosphatase (AP) from bovine intestinal mucosa (Bos taurus, UniProt P19111); test: Recovery of specific AP activity (pNPP) after electrospray deposition or drying; format: biochemical; conditions: for Activity % (ratio of specific activity of the electrospray-deposited AP to that in the initial solution): +(3-4) kV, 1-50 nA, 0.1 μL/min, tip distance 10 mm, humidity 65 ± 5%
T2 construct: purchased Sigma Chemical Co., St. Louis, Mo; host or cells: bovine intestinal mucosa
From the text: Materials. Alkaline phosphatase (AP) from bovine intestinal mucosa, p-nitrophenyl phosphate (pNPP substrate table set, Sigma Fast), trehalose and sucrose were obtained from Sigma Chemical Co., St. Louis, Mo. All other salts and buffer reagents were of analytical grade.
Design of Capillaries for Electrospray. Three different designs of the electrospray capillaries have been tested throughout this study. A first design, shown in FIG. 20A, is similar to the “nanoelectrospray ion source” (Wilm et al., 1994 and 1996) with a silver layer plated on the external surface of the capillary instead of gold. Glass capillaries with sealed ends were first treated for 20 seconds with an electrodeless plasma discharge at reduced pressure (0.01 Torr, discharge power of 10-20 W, in a Pyrex class chamber, 0.25 L). After such plasma cleaning, the glass capillaries were activated in an acidified solution of SnCl2 and 50 g of HCl per 1 L), washed with water and covered with a silver “mirror” (Yampolskii et al., 1981). This design is referred to as a capillary with an external electrode.
A second design, shown in FIG. 20B, is a modification of an electrospray capillary described by the laboratory of the present inventors (Morozov et al., 1993). In this capillary metal electrode (tungsten or stainless steel wire) is not exposed to a gas phase, thus reducing the risk of cornea discharge at high voltages. This second design is referred to as a capillary with an inner electrode.
In a third design, of the capillary (referred to as a bridge capillary), contact of protein solutions with a metal electrode was completely avoided by introducing a liquid bridge between them. […] Since the cross-section of the external capillary 5 is more than ten times larger than that of the inner capillary 7, the conductivity of the external capillary exceeds […] the conductivity of the inner capillary, making most of the current go through the large external capillary 5, whereas the internal plastic capillary 7 is used to supply protein solution.
A microprocessor controlled syringe pump (Cole-Parmer, Niles, Ill.) in combination with a 10 μL Hamilton microsyringe was used to feed the electrospray capillaries. The flow rate was 6-9 μL/h, and the outer diameter of the capillary tips varied in different experiments between 50 and 100 μm.
Chamber with Controlled Humidity. To control humidity during electrospray experiments with enzymes and to protect protein samples from contamination with dust particles present in the ambient air, the electrospray deposition was performed in a small (0.5 L) nearly cubic acrylic box, schematically presented in FIG. 21. A glass window was glued to one side of the box to enable sharp observation of the electrospray torch and substrate under a stereo microscope. The humidity and temperature inside the chamber were measured with solid state digital sensors (Fisher) with 2-4% precision for humidity and 0.2° C. for temperature. To increase the rate of sensor response and to keep the same humidity in all parts of the chamber, the air was stirred with a small fan. Dry air from a tank or air bubbled through water was introduced into the chamber until the required humidity was reached. The fan was then stopped, and electrospray initiated. Occasionally, portions of dry or wet gas were added during the spray experiment if the humidity deviated by more than 3-5% from the required level.
Mass Measurements of the Electrospray-Deposited Proteins. A home-built Quartz Crystal Microbalance (QCM; Sauerbrey, 1959) was used to measure the mass of the electrospray-deposited protein. The microbalance was made of commercial AT-cut quartz crystals (12-17 MHz, with silver electrodes of 5 mm in diameter) after removal of their protective shells. QCM calibration was performed using 0.1% solution of sugar in water. […]

Molecule | Effect in Electrospray Deposit Sample % (relative change in isometric tension) (Cytochrome C (equine)) | pI [1] | pH of exposure causing irreversible inactivation (Bovine intestinal AP) | enzymatic activity after electrospray deposition (alkaline phosphatase) | Activity % (ratio of specific activity of the electrospray-deposited AP to that in the initial solution) ([2]; Bridge Type capillary) [%] | AP activity after electrospray deposition at high voltage and current ([2]; V>7-8 kV, I>500-1500 nA) | AP activity preserved upon drying ([2]; addition of 50% (w/w) of disaccharide (sucrose or trehalose)) [%] | difference in specific AP activity of deposits made at low current before and after electrospray at 1500 nA from the same capillary ([2]; capillaries with internal and external electrodes) | Activity % (ratio of specific activity of the electrospray-deposited AP to that in the initial solution) ([2]; capillary with External Electrode) [%] | Activity % (ratio of specific activity of the electrospray-deposited AP to that in the initial solution) ([2]; capillary with Internal Electrode) [%] | AP inactivation upon electrospray deposition ([2]; capillary with internal electrode, humidity A=65%, currents not exceeding 50 nA) | decrease of AP activity upon electrospray deposition under low humidity ([2]; rapid drying of droplets in gas phase, low humidity, +4 kV, internal electrode, 10-50 nA, 6 μL/h) [%] | AP inactivation upon electrospray deposition ([2]; the two other capillary designs (external electrode, bridge), similar currents and humidity) [%]
O=S(O)S(=O)O [dithionite] | −41% and −49% |  |  |  |  |  |  |  |  |  |  |  | 
B1 |  | 4.4 | 4.5-5.0 | retained | 31 ± 12 | loses nearly all of its activity | 100 | no notable difference | 32 ± 9 | 55 ± 10 | approximately 45% | 30 | 70
